As a reminder, the Kd is the equilibrium constant for the complex coming apart.

“And” between values parts separate entries of the source, which are not always exact repeats. Equal entries are not always repeated.

Assay [1] concerns the target CD36 (His-tagged recombinant human protein, Sino Biological, Life technologies, 70-80 kDa) (human) (UniProt P16671). The assay is described as follows: SPR; Biacore T100; CD36 immobilized by amine coupling on a C1 chip (1000 RU); S100A12 species as analyte 0.62-50.0 nM, single cycle kinetics, 30 µL/min, 25 °C; HBS-P+ with 350 µM CaCl2; two-state reaction model. (Surface plasmon resonance follows binding to a sensor surface in real time, without labels.)

The target in assay [2] is receptor for advanced glycation endproducts (RAGE) on CHO-RAGE cells (UniProt Q15109). In words: radioligand binding; CHO cell lines incubated with [18F]FB-rS100A12 in PBS++ for 90 min at 37 °C, lysed, gamma counter, % ID per protein; blocking with 15-fold excess of rS100A12 or anti-CD36 antibody FA6-152 added 20 min before.
Chain of receptor for advanced glycation endproducts (RAGE) on CHO-RAGE cells (Q15109 23-404): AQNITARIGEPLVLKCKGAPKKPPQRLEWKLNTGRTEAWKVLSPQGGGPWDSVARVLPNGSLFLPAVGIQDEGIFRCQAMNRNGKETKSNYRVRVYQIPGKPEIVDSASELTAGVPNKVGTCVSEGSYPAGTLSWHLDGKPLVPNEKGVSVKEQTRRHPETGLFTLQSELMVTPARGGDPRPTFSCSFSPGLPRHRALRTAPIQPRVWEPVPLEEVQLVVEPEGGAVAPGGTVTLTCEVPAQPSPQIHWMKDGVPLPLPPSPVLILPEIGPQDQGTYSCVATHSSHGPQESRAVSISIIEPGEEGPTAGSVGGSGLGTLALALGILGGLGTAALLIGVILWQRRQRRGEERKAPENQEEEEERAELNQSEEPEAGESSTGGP
Assay [3] concerns the target CD36 on CHO-CD36 cells (UniProt P16671). The assay is described as above.
Assay [4] has as its target receptor for advanced glycation endproducts (RAGE) on CHO-RAGE cells (UniProt Q15109). In words: cell binding of a fluorescent tracer (fluorescence of cell lysates, plate reader); CHO cell lines in 24-well plates incubated with 10 µM fluorescein-rS100A12 for 90 min at 37 °C, lysed, fluorescence per protein; blocking with anti-CD36 antibody FA6-152 10 µg/mL, 30 min before.

The target in assay [5] is CD36 on CHO-CD36 cells (UniProt P16671). The assay is described as above.
Chain of CD36 on CHO-CD36 cells (P16671 whole entry): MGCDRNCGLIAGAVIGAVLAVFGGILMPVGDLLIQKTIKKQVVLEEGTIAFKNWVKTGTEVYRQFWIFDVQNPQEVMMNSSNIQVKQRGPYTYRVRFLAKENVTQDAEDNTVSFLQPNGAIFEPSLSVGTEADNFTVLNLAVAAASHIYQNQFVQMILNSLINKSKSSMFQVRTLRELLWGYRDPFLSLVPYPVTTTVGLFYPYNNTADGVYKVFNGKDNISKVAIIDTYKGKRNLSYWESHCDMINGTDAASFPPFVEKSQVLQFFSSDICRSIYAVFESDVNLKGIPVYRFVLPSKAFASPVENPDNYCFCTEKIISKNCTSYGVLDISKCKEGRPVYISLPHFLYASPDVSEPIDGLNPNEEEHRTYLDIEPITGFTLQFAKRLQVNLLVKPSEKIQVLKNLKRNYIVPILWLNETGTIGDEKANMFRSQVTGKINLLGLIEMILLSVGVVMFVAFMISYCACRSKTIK

Chain of CD36 (His-tagged recombinant human protein, Sino Biological, Life technologies, 70-80 kDa) (human) (P16671 30-439): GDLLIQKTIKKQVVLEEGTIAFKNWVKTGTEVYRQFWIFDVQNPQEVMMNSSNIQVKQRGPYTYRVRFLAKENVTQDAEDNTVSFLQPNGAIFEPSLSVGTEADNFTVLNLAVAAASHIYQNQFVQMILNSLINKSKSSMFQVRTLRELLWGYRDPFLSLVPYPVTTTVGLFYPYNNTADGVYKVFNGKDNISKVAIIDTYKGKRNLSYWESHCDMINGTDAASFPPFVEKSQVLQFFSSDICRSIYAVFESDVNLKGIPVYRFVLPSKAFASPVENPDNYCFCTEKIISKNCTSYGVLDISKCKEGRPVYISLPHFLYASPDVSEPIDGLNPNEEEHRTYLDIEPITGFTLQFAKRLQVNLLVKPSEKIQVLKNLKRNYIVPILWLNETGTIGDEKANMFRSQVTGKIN
Chain of 4-[18F]fluorobenzoyl-rS100A12 ([18F]FB-rS100A12) (natural protein) (P80511 2-92): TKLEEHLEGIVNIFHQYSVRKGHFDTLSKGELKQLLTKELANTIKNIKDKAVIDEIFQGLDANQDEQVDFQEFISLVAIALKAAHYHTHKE

On to “recombinant S100A12 (rS100A12) (natural protein)”, for which the Kd in assay [1] is 0.67 nM and 0.99 nM.
“4-[18F]fluorobenzoyl-rS100A12 ([18F]FB-rS100A12) (natural protein)”: the cell association higher than in CHO-K1 cells in assay [2] was found to be 40%; with CD36 on CHO-CD36 cells [3], 20%.
For the substance “fluorescein-labeled rS100A12 (natural protein)”, the figures for the binding higher than in CHO-K1 cells (in assay [4]; in the assay with CD36 on CHO-CD36 cells [5]) were 50% and 30%, respectively. Also, the Kd in assay [1] came to 4.79 nM.

(Values after PMC5241339.)
